Consider eleven molecules from PMC11320123, “Unveiling the molecular mechanisms of the type IX secretion system's response regulator: Structural and functional insights” (PNAS Nexus, 2024).

For data set [1], the target named is T1, THB + APS truncation mutant of PorXFJ (Flavobacterium johnsoniae, UniProt A5FFU4).
T1 construct: gene Fjoh_2906; REC domain truncated, residues 126–end; ~46 kDa; E. coli BL21
T1 sequence (A5FFU4 126-517): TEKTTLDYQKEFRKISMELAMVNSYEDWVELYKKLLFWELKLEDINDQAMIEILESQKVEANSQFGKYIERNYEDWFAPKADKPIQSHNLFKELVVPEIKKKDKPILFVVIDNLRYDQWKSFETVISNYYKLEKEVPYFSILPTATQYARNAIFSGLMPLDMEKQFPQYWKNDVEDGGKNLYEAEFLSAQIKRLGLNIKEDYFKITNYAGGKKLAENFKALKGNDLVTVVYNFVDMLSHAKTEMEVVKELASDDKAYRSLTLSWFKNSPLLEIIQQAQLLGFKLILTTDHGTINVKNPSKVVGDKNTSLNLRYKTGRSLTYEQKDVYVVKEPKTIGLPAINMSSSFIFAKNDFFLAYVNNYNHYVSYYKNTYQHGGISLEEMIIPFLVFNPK
Briefly: phosphodiesterase assay. The data set is classed as biochemical. The conditions noted are these: zinc-dependent.

In another data set the target is T2, PorXFJ (Flavobacterium johnsoniae, UniProt A5FFU4).
T2 construct: gene Fjoh_2906
T2 sequence (A5FFU4 1-517): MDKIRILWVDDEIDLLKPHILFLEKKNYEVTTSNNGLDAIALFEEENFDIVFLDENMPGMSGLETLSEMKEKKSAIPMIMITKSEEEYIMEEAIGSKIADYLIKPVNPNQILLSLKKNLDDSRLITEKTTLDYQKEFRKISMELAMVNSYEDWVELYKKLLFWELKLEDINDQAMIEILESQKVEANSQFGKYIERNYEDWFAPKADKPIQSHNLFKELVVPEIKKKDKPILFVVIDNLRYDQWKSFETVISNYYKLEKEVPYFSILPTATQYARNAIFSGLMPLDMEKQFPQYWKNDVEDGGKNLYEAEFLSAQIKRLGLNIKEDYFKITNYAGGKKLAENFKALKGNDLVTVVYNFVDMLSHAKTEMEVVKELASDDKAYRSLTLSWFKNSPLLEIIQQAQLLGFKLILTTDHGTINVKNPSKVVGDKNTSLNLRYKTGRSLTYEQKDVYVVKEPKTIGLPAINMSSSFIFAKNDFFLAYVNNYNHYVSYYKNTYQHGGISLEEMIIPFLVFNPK
The conditions noted are these: phosphate analogue; bound at REC phosphorylation site (Asp54) and at APS catalytic site near Thr271; primitive orthorhombic crystal form.

Data set [2] concerns the molecule itself. The data set can be described thus: SEC; protein incubated with acetyl phosphate (AcP) in the presence of magnesium; Superdex200inc 10/300 GL for wild type and point mutants, Superdex75inc 10/300 GL for truncations; monomer to dimer.
Data set [3] deals with the molecule itself. Briefly: SEC; protein incubated with zinc only (no AcP); Superdex200inc 10/300 GL for wild type and point mutants, Superdex75inc 10/300 GL for truncations; monomer to dimer. In general terms: In gel filtration, larger molecules generally elute earlier.
Data set [4] concerns the molecule itself. Briefly: SEC; protein incubated with acetyl phosphate (AcP) in the presence of magnesium; Superdex200inc 10/300 GL for wild type and point mutants, Superdex75inc 10/300 GL for truncations; monomer to dimer. The source holds these as a separate data set.
Data set [5] deals with the molecule itself. The data set can be described thus: SEC; protein incubated with zinc only (no AcP); Superdex200inc 10/300 GL for wild type and point mutants, Superdex75inc 10/300 GL for truncations; monomer to dimer. This is another data set of the same source.

Numbering of substitutions follows the chain as printed. Names may count otherwise.

As for `O=[N+]([O-])c1ccc(OP(=O)(O)Oc2ccc([N+](=O)[O-])cc2)cc1` [bis(p-nitrophenyl) phosphate], the phosphodiesterase assay result in data set [1] is “full-length PorXFJ and the THB + APS truncation mutant”. Regarding `[F][Be-]([F])[F]` [BeF3], on PorXFJ, the X-ray co-crystal structure result is recorded as “we have co-crystallized PorXFJ with the phosphate analog, BeF3”.

B1: PorXFJ REC domain (1–121) (domain or fragment, UniProt A5FFU4 1-121, looked up)
chain: MDKIRILWVDDEIDLLKPHILFLEKKNYEVTTSNNGLDAIALFEEENFDIVFLDENMPGMSGLETLSEMKEKKSAIPMIMITKSEEEYIMEEAIGSKIADYLIKPVNPNQILLSLKKNLDD
notes: also called REC domain only truncation variant; source: E. coli BL21, purified (Ni-NTA, thrombin cleavage, SEC); not shown: 10x-His, N-terminal, cleaved
As for B1, in data set [2], the binding result is recorded as “binds”.

B2: PorXFJ APS + THB domains (126–end) (domain or fragment, UniProt A5FFU4 126-517, looked up)
chain: T1 sequence (A5FFU4 126-517)
notes: also called THB + APS truncation mutant; THB + APS domains; source: E. coli BL21, purified (Ni-NTA, thrombin cleavage, SEC); not shown: 10x-His, N-terminal, cleaved
As for B2, the binding result in data set [3] is on record as “binds”.

B3: PorX from Flavobacterium johnsoniae (PorXFJ), wild type, full length (natural protein, UniProt A5FFU4 1-517, looked up)
chain: T2 sequence (A5FFU4 1-517)
notes: also called WT; Fjoh_2906; source: E. coli BL21, purified (Ni-NTA, thrombin cleavage, SEC); not shown: 10x-His, N-terminal, cleaved
For B3, the binding result in data set [4] was “binds”.

B4: PorXFJ T271V (APS domain catalytically inactive mutant) (natural protein, UniProt A5FFU4 1-517, looked up)
chain: T2 sequence (A5FFU4 1-517) with T271V
notes: source: E. coli BL21, purified (Ni-NTA, thrombin cleavage, SEC); not shown: 10x-His, N-terminal, cleaved
Consider B4, for which, in data set [2], the binding result is “binds”.

B5: PorXFJ L113E (REC domain dimerization interface mutant) (natural protein, UniProt A5FFU4 1-517, looked up)
chain: T2 sequence (A5FFU4 1-517) with L113E
notes: as for B4
For B5, in data set [5], the binding result was “binds”.

B6: PorXFJ S384A/S388E double mutant (APS domain dimerization interface) (natural protein, UniProt A5FFU4 1-517, looked up)
chain: T2 sequence (A5FFU4 1-517) with S384A, S388E
notes: also called S348A/S388E (as printed once); source: E. coli BL21, purified (Ni-NTA, thrombin cleavage, SEC); not shown: 10x-His, N-terminal, cleaved
On to B6, for which the binding result in data set [2] is on record as “binds”.

B7: PorXFJ D54A (REC domain phosphorylation-null mutant) (natural protein, UniProt A5FFU4 1-517, looked up)
chain: T2 sequence (A5FFU4 1-517) with D54A
notes: as for B4
With B7, the binding result in data set [5] was “binds”.

B8: PorXFJ D360A/H364A double mutant (zinc coordination, Zn1 site) (natural protein, UniProt A5FFU4 1-517, looked up)
chain: T2 sequence (A5FFU4 1-517) with D360A, H364A
notes: as for B4
Regarding B8, the binding result in data set [2] is on record as “binds”.

B9: PorXFJ REC + THB domains (1–208) (domain or fragment, UniProt A5FFU4 1-208, looked up)
chain: MDKIRILWVDDEIDLLKPHILFLEKKNYEVTTSNNGLDAIALFEEENFDIVFLDENMPGMSGLETLSEMKEKKSAIPMIMITKSEEEYIMEEAIGSKIADYLIKPVNPNQILLSLKKNLDDSRLITEKTTLDYQKEFRKISMELAMVNSYEDWVELYKKLLFWELKLEDINDQAMIEILESQKVEANSQFGKYIERNYEDWFAPKADK
notes: also called REC + THB domains truncated variant; source: E. coli BL21, purified (Ni-NTA, thrombin cleavage, SEC); not shown: 10x-His, N-terminal, cleaved
For B9, the binding result in data set [3] was “binds”.
